Literature values, collected in article PMC10536416.
Read-outs that look alike come from different tables or passages of the source.

Tests used:
[1] = biological target: Amyloid beta 1-42 Abeta 1-42 (Homo sapiens) (UniProt P05067)
[2] = biological target: Amyloid beta 1-42 Abeta 1-42 (Homo sapiens) (UniProt P05067); remark: listed apart in the source

Row | Kd [1] [nM] | Kd [2] [nM] | Substance
1 | 266 |  | Amyloid beta 1-40 Abeta 1-40 (from UniProt P05067)
2 |  | 202 | Amyloid beta 1-40 on dextran-coated iron oxide nanoparticles Abeta 1-40 (from UniProt P05067)
